Results as given in the FLAb antibody collection (doi:10.7554/elife.23156).

B1: scFv; the commonest letter at each place (parent)
chain 1: EVKLDETGGGLVQPGRPMKLSCVASGFTFSDYWMNWVRQSPEKGLEWVAQIRNKPYNYETYYSDSVKGRFTISRDDSKSSVYLQMNNLRVEDMGIYYCTGSYYGMDYWGQGTSVTVS
chain 2: DVVMTQTPLSLPVSLGDQASISCRSSQSLVHSNGNTYLRWYLQKPGQSPKVLIYKVSNRFSGVPDRFSGSGSGTDFTLKISRVEAEDLGVYFCSQSTHVPWTFGGGTKLEIK

Tests used:
fluorescein = variants of: B1; assay: Kd (Tite-Seq); settings: with fluorescein; format: scFv 4-4-20, heavy + light
[1] = variants of: B1; assay: yeast surface expression (ratio to wild type); higher = more expressed; settings: format: scFv 4-4-20, heavy + light

Kd (fluorescein) [µM] | Variant | yeast surface expression [1]
≥ 10 | chain 1 S30I W36V V37Q | 0.525
≥ 10 | chain 1 Y32N M34G | 0.608
≥ 10 | chain 1 F29D | 1.07
≥ 10 | chain 1 S101P Y102V W108C | 0.1
≥ 10 | chain 1 G104T Y107P | 0.313
0.00184 | chain 1 T28D | 1.15
≥ 10 | chain 1 F29Q M34W | 1.56
0.00158 | chain 1 Y102W Y107F | 0.61
0.02 | chain 1 M34T V37C | 0.697
≥ 10 | chain 1 N35V W36M | 0.488
≥ 10 | chain 1 G100I Y103F | 0.932
≥ 10 | chain 1 Y102D Y107K G109H | 0.302
≥ 10 | chain 1 G100V G104D | 0.777
≥ 10 | chain 1 Y103I D106L | 0.354
0.00251 | chain 1 Y102S Y107R | 0.667
≥ 10 | chain 1 W33T N35D V37W | 0.582
≥ 10 | chain 1 F29N W36H | 0.279
≥ 10 | chain 1 T28E S30W Y32D | 0.574
0.00444 | chain 1 D31I Y32A | 0.779
0.424 | chain 1 T28C S30I | 0.651
≥ 10 | chain 1 W33D M34Q | 0.754
0.75 | chain 1 Y102Q M105Y | 0.947
≥ 10 | chain 1 M105I D106Y | 0.4
≥ 10 | chain 1 G104T W108F | 0.329

Kd (fluorescein) [µM] | Variant | yeast surface expression [1]
≥ 10 | chain 1 G104I W108H | 0.102
3.2 | chain 1 M105K D106E | 1.01
2.11 | chain 1 D31T W33F | 0.629
≥ 10 | chain 1 D31T W33L | 0.518
0.495 | chain 1 M34A V37I | 0.837
5.96 | chain 1 Y32S W36F | 0.853
0.02 | chain 1 Y102K M105N | 0.916
≥ 10 | chain 1 Y102V M105H G109V | 0.276
≥ 10 | chain 1 M105Q G109M | 0.216
≥ 10 | chain 1 S101C M105Y Y107D | 0.281
≥ 10 | chain 1 Y32G V37P | 0.972
≥ 10 | chain 1 F29L S30L | 0.651
0.00146 | chain 1 S30Y | 0.759
0.00343 | chain 1 G100C D106N | 0.768
≥ 10 | chain 1 G109P | 0.312
0.0017 | chain 1 G100A | 0.964
≥ 10 | chain 1 G100K | 0.395
≥ 10 | chain 1 G100N | 0.668
3.2 | chain 1 W108P G109A | 0.41
≥ 10 | chain 1 Y102Q G104T | 0.546
≥ 10 | chain 1 G100C Y107E | 0.6
≥ 10 | chain 1 G104S Y107K | 0.796
≥ 10 | chain 1 M34A W36M | 0.249

The next lines start with the variant.

Variant | Kd (fluorescein) [µM] | yeast surface expression [1]
chain 1 T28G F29R W36P | ≥ 10 | 0.146
chain 1 T28V S30D | 0.000454 | 0.917
chain 1 Y103D Y107C | ≥ 10 | 0.646
chain 1 M105D | ≥ 10 | 0.695
chain 1 F29G D31R | ≥ 10 | 0.931
chain 1 Y102R M105N | 0.0318 | 0.764
chain 1 G100R W108C | ≥ 10 | 0.246
chain 1 Y102W Y107G | ≥ 10 | 0.493
chain 1 S101L Y103S M105A | ≥ 10 | 0.713
chain 1 S101Q Y102R | ≥ 10 | 1.07
chain 1 F29C M34K W36I | ≥ 10 | 0.425
chain 1 D31R N35S V37L | ≥ 10 | 0.577
chain 1 T28P Y32R | 5.66 | 1.09
chain 1 Y32I | ≥ 10 | 0.938
chain 1 M34G W36M | ≥ 10 | 1.94
chain 1 Y103P D106H | ≥ 10 | 0.565
chain 1 M105T Y107N | ≥ 10 | 0.778
chain 1 F29D W33V | ≥ 10 | 0.87
chain 1 S101P W108T | ≥ 10 | 0.168
chain 1 D31A V37K | 0.382 | 0.623
chain 1 M34F W36Y | 0.00468 | 0.948
chain 1 Y102L W108Q | ≥ 10 | 0.328
chain 1 Y103L M105C | ≥ 10 | 1

Variant | Kd (fluorescein) [µM] | yeast surface expression [1]
chain 1 T28P V37S | 0.000939 | 0.884
chain 1 Y102A D106S | 0.0038 | 1.06
chain 1 S30Y W33L | ≥ 10 | 0.755
chain 1 M34Y W36K | ≥ 10 | 0.113
chain 1 M105F W108Y | 0.0113 | 0.656
chain 1 T28G F29P | ≥ 10 | 0.769
chain 1 T28E S30I W33I | ≥ 10 | 0.628
chain 1 G100Q Y107L G109E | ≥ 10 | 0.226
chain 1 S101E W108H | ≥ 10 | 0.374
chain 1 M34T N35D | ≥ 10 | 0.415
chain 1 Y103L W108D | ≥ 10 | 0.501
chain 1 G100E M105D | ≥ 10 | 0.296
chain 1 Y102Q M105D | ≥ 10 | 0.932
chain 1 Y102C G109R | ≥ 10 | 0.304
chain 1 S30P N35L | ≥ 10 | 0.652
chain 1 M105N Y107I | ≥ 10 | 1.2
chain 1 F29Q Y32C | 9.5 | 1
chain 1 M34I N35Y V37Y | ≥ 10 | 0.45
chain 1 Y103D G109H | ≥ 10 | 0.441
chain 1 G104S W108S | ≥ 10 | 0.304
chain 1 M105N G109A | ≥ 10 | 0.467
chain 1 W33K W36Y | ≥ 10 | 0.396
chain 1 N35C W36F | ≥ 10 | 0.644

Variant | Kd (fluorescein) [µM] | yeast surface expression [1]
chain 1 W33R V37D | 0.205 | 1.19
chain 1 Y107N W108D G109C | ≥ 10 | 0.313
chain 1 G100E Y107H | ≥ 10 | 0.501
chain 1 Y32A W36N | ≥ 10 | 1.17
chain 1 S30V | 0.000743 | 0.901
chain 1 Y32K V37T | ≥ 10 | 0.623
chain 1 N35S | ≥ 10 | 1.04
chain 1 N35Y | ≥ 10 | 0.697
chain 1 G109M | ≥ 10 | 0.213
chain 1 G109Y | ≥ 10 | 0.212
chain 1 G100H D106C | ≥ 10 | 0.222
chain 1 S30E N35E | ≥ 10 | 0.894
chain 1 Y32K M34C | ≥ 10 | 0.91
chain 1 S30A M34C | 0.00104 | 0.868
chain 1 F29H W33R | ≥ 10 | 0.182
chain 1 G100S | 0.0038 | 0.938
chain 1 G100H | ≥ 10 | 0.432
chain 1 Y102Q G104L | ≥ 10 | 0.667
chain 1 D106G Y107W | ≥ 10 | 0.338
chain 1 D31R W36M V37G | 0.79 | 3.04
chain 1 G104M G109L | ≥ 10 | 0.0989
chain 1 G100A Y103L W108G | 5.96 | 0.436
chain 1 Y32V M34D | ≥ 10 | 0.218
